The text below walks through data of PMC11431768, “Mechanistic Insights into Substrate Recognition of Human Nucleoside Diphosphate Kinase C Based on Nucleotide-Induced Structural Changes” (International Journal of Molecular Sciences, 2024).

Series [1] deals with the molecule itself. Put plainly: SEC-MALS; SEC-RI-MALS; Superdex 200 5/150; samples at 60 to 600 µM; gel filtration buffer (20 mM Tris-HCl, 300 mM NaCl, 5 mM MgCl2, DTT); 0.3 mL/min; RI at 25 °C. For orientation: In gel filtration, larger molecules generally elute earlier.
Series [2] concerns the molecule itself. The series is described as follows: mass photometry; His-tagged NDPK-C directly after affinity purification.

B1: human nucleoside diphosphate kinase C, N-terminally truncated (residues Thr18–Glu169), untagged (enzyme, UniProt Q13232 18-169, looked up)
chain: TGAHERTFLAVKPDGVQRRLVGEIVRRFERKGFKLVALKLVQASEELLREHYAELRERPFYGRLVKYMASGPVVAMVWQGLDVVRTSRALIGATNPADAPPGTIRGDFCIEVGKNLIHGSDSVESARREIALWFRADELLCWEDSAGHWLYE
notes: human NDPK-C (nme3 gene product), residues Thr18-Glu169 of UniProt Q13232; The forward primer puts a start codon (Met) before Thr18; The results speak of a 156-residue subunit, while Thr18-Glu169 is 152 residues; The extra residues are probably what TEV cleavage leaves of the tag plus the Met; also called NDPK-C; NDPK isoform C; source: E. coli BL21 (DE3), purified (HisTrap, SEC, TEV cleavage, …)
The stoichiometry N is a count of units in the complex or per binding partner. As to B1, the “stoichiometry N” value in series [1] is 6.

B2: His-tagged human NDPK-C (residues Thr18–Glu169) (enzyme, UniProt Q13232 18-169, looked up)
chain: B1 chain
notes: human NDPK-C (nme3 gene product), residues Thr18-Glu169 of UniProt Q13232; the expression plasmid encodes a 173 amino acid polypeptide including the N-terminal TEV-cleavable His-tag; 173 residues in all; also called His-NDPK-C; His-tagged NDPK-C; not shown: His6, N-terminal, kept
For B2, the “stoichiometry N” value in series [2] came to 6.
